Patent US20130143798A1 (Novo Nordisk, published 2013)
Each block holds one binder with its values, some of them ahead of it. Numbered stars: 1 amine (or outer) side, 2 acyl side, 3 side chain; on linkers, the order of the positions; unused ones are H or OH. Square brackets hold non-standard residues; d marks the D form. Side chains are listed from the residue outwards. Ends that are not written are not given here. * marks the point of attachment. C18 diacid = O=C(O)CCCCCCCCCCCCCCCCC(=O)*; γGlu = O=C(O)[C@H](CCC(=O)[*:2])N[*:1]; AEEA = NCCOCCOCC(=O)O; Aib = CC(C)(N)C(=O)O

Biological target: glucagon receptor (UniProt P47871 26-477, limits assumed)
Assay: cell-based or functional assay

Sequence of glucagon receptor (P47871 26-477 limits assumed): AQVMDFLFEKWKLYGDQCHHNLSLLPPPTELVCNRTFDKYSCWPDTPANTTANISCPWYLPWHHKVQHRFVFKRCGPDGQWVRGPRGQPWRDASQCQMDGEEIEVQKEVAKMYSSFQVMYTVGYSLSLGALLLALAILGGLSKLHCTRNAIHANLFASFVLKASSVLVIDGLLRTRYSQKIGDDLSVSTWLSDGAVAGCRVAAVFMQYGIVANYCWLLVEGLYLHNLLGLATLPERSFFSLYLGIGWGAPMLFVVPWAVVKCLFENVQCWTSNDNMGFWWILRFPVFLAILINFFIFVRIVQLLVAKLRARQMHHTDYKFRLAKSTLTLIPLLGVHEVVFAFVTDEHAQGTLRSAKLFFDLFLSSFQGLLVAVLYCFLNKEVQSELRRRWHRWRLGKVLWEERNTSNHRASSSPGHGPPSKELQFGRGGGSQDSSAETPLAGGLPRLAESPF

Binder: HSQGTFTSDYSKYLDK([AEEA-AEEA-γGlu-C18 diacid])RRAQDFVQWLLNT
Assay (I) Glucagon [EC50]: 0.003 nM

Binder: HSQGTFTSDYSKYLDSK([AEEA-AEEA-γGlu-C18 diacid])RAQDFVQWLLNT
Assay (I) Glucagon [EC50]: 0.094 nM

Binder: HSQGTFTSDYSKYLDTRRAQDFVK([AEEA-AEEA-γGlu-C18 diacid])WLLST
Assay (I) Glucagon [EC50]: 0.016 nM

B1: N^ε24-([2-[2-[2-[[2-[2-[2-[[(4S)-5-hydroxy-4-[(18-hydroxy-18-oxooctadecanoyl)amino]-5-oxopentanoyl]amino]ethoxy]ethoxy]acetyl]amino]ethoxy]ethoxy]acetyl]) … (peptide)
peptide: H[Aib]QGTFTSDYSKYLDERRAQDFVK([AEEA-AEEA-γGlu-C18 diacid])WLLNT-NH2
modifications: N-terminus assumed
SMILES: CC(C)C[C@H](NC(=O)[C@H](Cc1ccc(O)cc1)NC(=O)[C@H](CCCCN)NC(=O)[C@H](CO)NC(=O)[C@H](Cc1ccc(O)cc1)NC(=O)[C@H](CC(=O)O)NC(=O)[C@H](CO)NC(=O)[C@@H](NC(=O)[C@H](Cc1ccccc1)NC(=O)[C@@H](NC(=O)CNC(=O)[C@H](CCC(N)=O)NC(=O)C(C)(C)NC(=O)[C@@H](N)Cc1c[nH]cn1)[C@@H](C)O)[C@@H](C)O)C(=O)N[C@@H](CC(=O)O)C(=O)N[C@@H](CCC(=O)O)C(=O)N[C@@H](CCCNC(=N)N)C(=O)N[C@@H](CCCNC(=N)N)C(=O)N[C@@H](C)C(=O)N[C@@H](CCC(N)=O)C(=O)N[C@@H](CC(=O)O)C(=O)N[C@@H](Cc1ccccc1)C(=O)N[C@H](C(=O)N[C@@H](CCCCNC(=O)COCCOCCNC(=O)COCCOCCNC(=O)CC[C@H](NC(=O)CCCCCCCCCCCCCCCCC(=O)O)C(=O)O)C(=O)N[C@@H](Cc1c[nH]c2ccccc12)C(=O)N[C@@H](CC(C)C)C(=O)N[C@@H](CC(C)C)C(=O)N[C@@H](CC(N)=O)C(=O)N[C@H](C(N)=O)[C@@H](C)O)C(C)C
Assay (I) Glucagon [EC50]: 0.135 nM

Binder: HSQGTFTSDYSRYLDSRRAQDFVK([AEEA-AEEA-γGlu-C18 diacid])WLLNT
Assay (I) Glucagon [EC50]: 0.109 nM

B4: N^ε24-([2-[2-[2-[[2-[2-[2-[[(4S)-5-hydroxy-4-[(18-hydroxy-18-oxooctadecanoyl)amino]-5-oxopentanoyl]amino]ethoxy]ethoxy]acetyl]amino]ethoxy]ethoxy]acetyl]) … (peptide)
peptide: H[dS]QGTFTSDYSKYLAEQRARDFVK([AEEA-AEEA-γGlu-C18 diacid])WLLNT-NH2
modifications: N-terminus assumed
SMILES: CC(C)C[C@H](NC(=O)[C@H](Cc1ccc(O)cc1)NC(=O)[C@H](CCCCN)NC(=O)[C@H](CO)NC(=O)[C@H](Cc1ccc(O)cc1)NC(=O)[C@H](CC(=O)O)NC(=O)[C@H](CO)NC(=O)[C@@H](NC(=O)[C@H](Cc1ccccc1)NC(=O)[C@@H](NC(=O)CNC(=O)[C@H](CCC(N)=O)NC(=O)[C@@H](CO)NC(=O)[C@@H](N)Cc1c[nH]cn1)[C@@H](C)O)[C@@H](C)O)C(=O)N[C@@H](C)C(=O)N[C@@H](CCC(=O)O)C(=O)N[C@@H](CCC(N)=O)C(=O)N[C@@H](CCCNC(=N)N)C(=O)N[C@@H](C)C(=O)N[C@@H](CCCNC(=N)N)C(=O)N[C@@H](CC(=O)O)C(=O)N[C@@H](Cc1ccccc1)C(=O)N[C@H](C(=O)N[C@@H](CCCCNC(=O)COCCOCCNC(=O)COCCOCCNC(=O)CC[C@H](NC(=O)CCCCCCCCCCCCCCCCC(=O)O)C(=O)O)C(=O)N[C@@H](Cc1c[nH]c2ccccc12)C(=O)N[C@@H](CC(C)C)C(=O)N[C@@H](CC(C)C)C(=O)N[C@@H](CC(N)=O)C(=O)N[C@H](C(N)=O)[C@@H](C)O)C(C)C
Assay (I) Glucagon [EC50]: 0.137 nM

Binder: H[dS]QGTFTSDYSKYLDSRRAKDFVQWLMNTK-NH2 (not fully specified)
Assay (I) Glucagon [EC50]: 0.54 nM

B7: N^ε24-([2-[2-[2-[[2-[2-[2-[[(4S)-5-hydroxy-4-[(18-hydroxy-18-oxooctadecanoyl)amino]-5-oxopentanoyl]amino]ethoxy]ethoxy]acetyl]amino]ethoxy]ethoxy]acetyl])[Glu^2 … (peptide)
peptide: HSQGTFTSDYSKYLDSRRAQEFVK([AEEA-AEEA-γGlu-C18 diacid])RLLNT-NH2
modifications: N-terminus assumed
SMILES: CC(C)C[C@H](NC(=O)[C@H](Cc1ccc(O)cc1)NC(=O)[C@H](CCCCN)NC(=O)[C@H](CO)NC(=O)[C@H](Cc1ccc(O)cc1)NC(=O)[C@H](CC(=O)O)NC(=O)[C@H](CO)NC(=O)[C@@H](NC(=O)[C@H](Cc1ccccc1)NC(=O)[C@@H](NC(=O)CNC(=O)[C@H](CCC(N)=O)NC(=O)[C@H](CO)NC(=O)[C@@H](N)Cc1c[nH]cn1)[C@@H](C)O)[C@@H](C)O)C(=O)N[C@@H](CC(=O)O)C(=O)N[C@@H](CO)C(=O)N[C@@H](CCCNC(=N)N)C(=O)N[C@@H](CCCNC(=N)N)C(=O)N[C@@H](C)C(=O)N[C@@H](CCC(N)=O)C(=O)N[C@@H](CCC(=O)O)C(=O)N[C@@H](Cc1ccccc1)C(=O)N[C@H](C(=O)N[C@@H](CCCCNC(=O)COCCOCCNC(=O)COCCOCCNC(=O)CC[C@H](NC(=O)CCCCCCCCCCCCCCCCC(=O)O)C(=O)O)C(=O)N[C@@H](CCCNC(=N)N)C(=O)N[C@@H](CC(C)C)C(=O)N[C@@H](CC(C)C)C(=O)N[C@@H](CC(N)=O)C(=O)N[C@H](C(N)=O)[C@@H](C)O)C(C)C
Assay (I) Glucagon [EC50]: 0.043 nM

Results, then the binder that gave them:

Assay (I) Glucagon [EC50]: 0.149 nM
Binder: H[dS]QGTFTSDYSKYLDERRAQDFVK([AEEA-AEEA-γGlu-C18 diacid])WLLNT

Assay (I) Glucagon [EC50]: 0.02 nM
Binder: HSQGTFTSDYSKYLDSRRAQDFVK([AEEA-AEEA-γGlu-C18 diacid])WLLST

Assay (I) Glucagon [EC50]: 0.021 nM
Binder: HSQGTFTSDYSKYLDSRRAQEFVK([AEEA-AEEA-γGlu-C18 diacid])WLLNT

Assay (I) Glucagon [EC50]: 0.192 nM
B2: N^α([Glu^16,Gln^17,Arg^20]Glucagonyl) … (peptide)
peptide: HSQGTFTSDYSKYLDEQRARDFVQWLMNTK([AEEA-AEEA-γGlu-C18 diacid])-NH2
modifications: N-terminus assumed
SMILES: CSCC[C@H](NC(=O)[C@H](CC(C)C)NC(=O)[C@H](Cc1c[nH]c2ccccc12)NC(=O)[C@H](CCC(N)=O)NC(=O)[C@@H](NC(=O)[C@H](Cc1ccccc1)NC(=O)[C@H](CC(=O)O)NC(=O)[C@H](CCCNC(=N)N)NC(=O)[C@H](C)NC(=O)[C@H](CCCNC(=N)N)NC(=O)[C@H](CCC(N)=O)NC(=O)[C@H](CCC(=O)O)NC(=O)[C@H](CC(=O)O)NC(=O)[C@H](CC(C)C)NC(=O)[C@H](Cc1ccc(O)cc1)NC(=O)[C@H](CCCCN)NC(=O)[C@H](CO)NC(=O)[C@H](Cc1ccc(O)cc1)NC(=O)[C@H](CC(=O)O)NC(=O)[C@H](CO)NC(=O)[C@@H](NC(=O)[C@H](Cc1ccccc1)NC(=O)[C@@H](NC(=O)CNC(=O)[C@H](CCC(N)=O)NC(=O)[C@H](CO)NC(=O)[C@@H](N)Cc1c[nH]cn1)[C@@H](C)O)[C@@H](C)O)C(C)C)C(=O)N[C@@H](CC(N)=O)C(=O)N[C@H](C(=O)N[C@@H](CCCCNC(=O)COCCOCCNC(=O)COCCOCCNC(=O)CC[C@H](NC(=O)CCCCCCCCCCCCCCCCC(=O)O)C(=O)O)C(N)=O)[C@@H](C)O

Assay (I) Glucagon [EC50]: 0.406 nM
B3: N^α([Glu^16,Gln^17,Ala^18,Arg^20]Glucagonyl) … (peptide)
peptide: HSQGTFTSDYSKYLDEQAARDFVQWLMNTK([AEEA-AEEA-γGlu-C18 diacid])-NH2
modifications: N-terminus assumed
SMILES: CSCC[C@H](NC(=O)[C@H](CC(C)C)NC(=O)[C@H](Cc1c[nH]c2ccccc12)NC(=O)[C@H](CCC(N)=O)NC(=O)[C@@H](NC(=O)[C@H](Cc1ccccc1)NC(=O)[C@H](CC(=O)O)NC(=O)[C@H](CCCNC(=N)N)NC(=O)[C@H](C)NC(=O)[C@H](C)NC(=O)[C@H](CCC(N)=O)NC(=O)[C@H](CCC(=O)O)NC(=O)[C@H](CC(=O)O)NC(=O)[C@H](CC(C)C)NC(=O)[C@H](Cc1ccc(O)cc1)NC(=O)[C@H](CCCCN)NC(=O)[C@H](CO)NC(=O)[C@H](Cc1ccc(O)cc1)NC(=O)[C@H](CC(=O)O)NC(=O)[C@H](CO)NC(=O)[C@@H](NC(=O)[C@H](Cc1ccccc1)NC(=O)[C@@H](NC(=O)CNC(=O)[C@H](CCC(N)=O)NC(=O)[C@H](CO)NC(=O)[C@@H](N)Cc1c[nH]cn1)[C@@H](C)O)[C@@H](C)O)C(C)C)C(=O)N[C@@H](CC(N)=O)C(=O)N[C@H](C(=O)N[C@@H](CCCCNC(=O)COCCOCCNC(=O)COCCOCCNC(=O)CC[C@H](NC(=O)CCCCCCCCCCCCCCCCC(=O)O)C(=O)O)C(N)=O)[C@@H](C)O

Assay (I) Glucagon [EC50]: 0.206 nM
Binder: HSQGTFTSDYSKYLDSRK([AEEA-AEEA-γGlu-C18 diacid])AQDFVQWLLNT

Assay (I) Glucagon [EC50]: 0.046 nM
B5: N^ε29-([2-[2-[2-[[(4S)-5-hydroxy-4-[(18-hydroxy-18-oxooctadecanoyl)amino]5-oxopentanoyl]amino]ethoxy]ethoxy]acetyl]amino]ethoxy]ethoxy]acetyl]])[Leu^27,Lys^29]G … (peptide)
peptide: HSQGTFTSDYSKYLDSRRAQDFVQWLLNK([AEEA-AEEA-γGlu-C18 diacid])
modifications: not fully specified; printed as N^ε29-([2-[2-[2-[[(4S)-5-hydroxy-4-[(18-hydroxy-18-oxooctadecanoyl)amino]5-oxopentanoyl]amino]ethoxy]ethoxy]acetyl]amino]ethoxy]ethoxy]acetyl]])[Leu^27,Lys^29]Glucagon

Assay (I) Glucagon [EC50]: 0.024 nM
Binder: HSQGTFTSDYSKYLDSRRAQDFVK([AEEA-AEEA-γGlu-C18 diacid])WLLTT

Assay (I) Glucagon [EC50]: 0.019 nM
B6: N^α([Leu^27]Glucagonyl) … (peptide)
peptide: HSQGTFTSDYSKYLDSRRAQDFVQWLLNTK
modifications: C-terminal Lys (position 30): N-epsilon acylated with the substituent printed in the name
